Laboratory results reported in patent US20180155451A1 (published 2018).

T1: FcγRIIb extracellular domain with C-terminal His tag (human, UniProt P31994 43-217)
T1 construct: extracellular domain; soluble receptor expressed in FreeStyle293 cells, used as analyte in Biacore; also called FcgRIIb; 2b; not shown: His tag attached to the C terminus
T1 sequence (looked up): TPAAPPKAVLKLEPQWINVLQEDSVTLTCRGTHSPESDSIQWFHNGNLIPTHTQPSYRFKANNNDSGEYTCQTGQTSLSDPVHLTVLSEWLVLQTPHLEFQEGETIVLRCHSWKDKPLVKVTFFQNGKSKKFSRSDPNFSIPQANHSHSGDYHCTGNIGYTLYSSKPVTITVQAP

B1: GpH7-A5/GpH7-B3 variant E333_02A/GpL16-k0 (antibody, human IgG1, kappa)
heavy 1: not shown
heavy 2: not shown
light: DIVMTQSPLSLPVTPGEPASISCQASESLVHSNRNTYLHWYLQKPGQSPQLLIYKVSNRFSGVPDRFSGSGSGTDFTLKISRVEAEDVGVYYCSQNTHVPPTFGQGTKVEIERTVAAPSVFIFPPSDEQLKSGTASVVCLLNNFYPREAKVQWKVDNALQSGNSQESVTEQDSKDSTYSLSSTLTLSKADYEKHKVYACEVTHQGLSSPVTKSFNRGEC
notes: heterodimerized anti-glypican-3 IgG1; alteration in the GpH7-B3 chain only; also called He Ab
B2: GpH7-A5/GpH7-B3 variant Q295_04F/GpL16-k0 (antibody, human IgG1, kappa)
heavy 1: not shown
heavy 2: not shown
light: B1 light
notes: as for B1
B3: GpH7-A5/GpH7-B3 variant I332_12R/GpL16-k0 (antibody, human IgG1, kappa)
heavy 1: not shown
heavy 2: not shown
light: B1 light
notes: as for B1
B4: GpH7-A5/GpH7-B3 variant S324_08L/GpL16-k0 (antibody, human IgG1, kappa)
heavy 1: not shown
heavy 2: not shown
light: B1 light
notes: as for B1
B5: GpH7-A5/GpH7-B3 variant D270_05P/GpL16-k0 (antibody, human IgG1, kappa)
heavy 1: not shown
heavy 2: not shown
light: B1 light
notes: as for B1
B6: GpH7-A5/GpH7-B3 variant P271_04F/GpL16-k0 (antibody, human IgG1, kappa)
heavy 1: not shown
heavy 2: not shown
light: B1 light
notes: as for B1
B7: GpH7-A5/GpH7-B3 variant D270_18N/GpL16-k0 (antibody, human IgG1, kappa)
heavy 1: not shown
heavy 2: not shown
light: B1 light
notes: as for B1
B8: GpH7-A5/GpH7-B3 variant D270_07I/GpL16-k0 (antibody, human IgG1, kappa)
heavy 1: not shown
heavy 2: not shown
light: B1 light
notes: as for B1
B9: GpH7-A5/GpH7-B3 variant Q295_07I/GpL16-k0 (antibody, human IgG1, kappa)
heavy 1: not shown
heavy 2: not shown
light: B1 light
notes: as for B1
B10: GpH7-A5/GpH7-B3 variant D270_14T/GpL16-k0 (antibody, human IgG1, kappa)
heavy 1: not shown
heavy 2: not shown
light: B1 light
notes: as for B1
B11: GpH7-A5/GpH7-B3 variant D270_15Y/GpL16-k0 (antibody, human IgG1, kappa)
heavy 1: not shown
heavy 2: not shown
light: B1 light
notes: as for B1
B12: GpH7-A5/GpH7-B3 variant D270_12R/GpL16-k0 (antibody, human IgG1, kappa)
heavy 1: not shown
heavy 2: not shown
light: B1 light
notes: as for B1
B13: GpH7-A5/GpH7-B3 variant E333_05P/GpL16-k0 (antibody, human IgG1, kappa)
heavy 1: not shown
heavy 2: not shown
light: B1 light
notes: as for B1
B14: GpH7-A5/GpH7-B3 variant Q295_03V/GpL16-k0 (antibody, human IgG1, kappa)
heavy 1: not shown
heavy 2: not shown
light: B1 light
notes: as for B1
B15: GpH7-A5/GpH7-B3 variant Q295_02A/GpL16-k0 (antibody, human IgG1, kappa)
heavy 1: not shown
heavy 2: not shown
light: B1 light
notes: as for B1
B16: GpH7-A5/GpH7-B3 variant Q295_14T/GpL16-k0 (antibody, human IgG1, kappa)
heavy 1: not shown
heavy 2: not shown
light: B1 light
notes: as for B1
B17: GpH7-A5/GpH7-B3 variant D270_11K/GpL16-k0 (antibody, human IgG1, kappa)
heavy 1: not shown
heavy 2: not shown
light: B1 light
notes: as for B1
B18: GpH7-A5/GpH7-B3 variant D270_08L/GpL16-k0 (antibody, human IgG1, kappa)
heavy 1: not shown
heavy 2: not shown
light: B1 light
notes: as for B1
B19: GpH7-A5/GpH7-B3 variant P271_20W/GpL16-k0 (antibody, human IgG1, kappa)
heavy 1: not shown
heavy 2: not shown
light: B1 light
notes: as for B1
B20: GpH7-A5/GpH7-B3 variant Q295_05P/GpL16-k0 (antibody, human IgG1, kappa)
heavy 1: not shown
heavy 2: not shown
light: B1 light
notes: as for B1
B21: GpH7-A5/GpH7-B3 variant D270_20W/GpL16-k0 (antibody, human IgG1, kappa)
heavy 1: not shown
heavy 2: not shown
light: B1 light
notes: as for B1
B22: GpH7-A5/GpH7-B3 variant E333_04F/GpL16-k0 (antibody, human IgG1, kappa)
heavy 1: not shown
heavy 2: not shown
light: B1 light
notes: as for B1
B23: GpH7-A5/GpH7-B3 variant D270_19Q/GpL16-k0 (antibody, human IgG1, kappa)
heavy 1: not shown
heavy 2: not shown
light: B1 light
notes: as for B1
B24: GpH7-A5/GpH7-B3 variant P271_16H/GpL16-k0 (antibody, human IgG1, kappa)
heavy 1: not shown
heavy 2: not shown
light: B1 light
notes: as for B1
B25: GpH7-A5/GpH7-B3 variant S324_11K/GpL16-k0 (antibody, human IgG1, kappa)
heavy 1: not shown
heavy 2: not shown
light: B1 light
notes: as for B1

The binders below were run against T2, FcγRIa extracellular domain with C-terminal His tag (human, UniProt P12314 16-292) (assay: SPR (Biacore), antibody captured on antigen peptide chip, FcγR as analyte; relative binding).
T2 construct: extracellular domain; soluble receptor expressed in FreeStyle293 cells, used as analyte in Biacore; also called FcgRI; 1a; not shown: His tag attached to the C terminus
T2 sequence (P12314 16-292): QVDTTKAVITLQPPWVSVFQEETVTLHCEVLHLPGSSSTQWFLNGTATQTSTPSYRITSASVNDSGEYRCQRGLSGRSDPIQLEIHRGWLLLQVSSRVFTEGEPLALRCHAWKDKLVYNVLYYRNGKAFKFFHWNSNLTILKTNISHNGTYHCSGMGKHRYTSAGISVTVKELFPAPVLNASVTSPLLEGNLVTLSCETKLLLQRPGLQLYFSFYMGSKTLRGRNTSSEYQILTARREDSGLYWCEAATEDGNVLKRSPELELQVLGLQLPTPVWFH

He/Con_1a | Binder
103 % of control GpH7-A5/GpH7-B3/GpL16-k0 (=100) | B1
102 % of control GpH7-A5/GpH7-B3/GpL16-k0 (=100) | B2
100 % of control GpH7-A5/GpH7-B3/GpL16-k0 (=100) | B3
103 % of control GpH7-A5/GpH7-B3/GpL16-k0 (=100) | B4
67.1 % of control GpH7-A5/GpH7-B3/GpL16-k0 (=100) | B5
102 % of control GpH7-A5/GpH7-B3/GpL16-k0 (=100) | B6
67.8 % of control GpH7-A5/GpH7-B3/GpL16-k0 (=100) | B7
74.6 % of control GpH7-A5/GpH7-B3/GpL16-k0 (=100) | B8
103 % of control GpH7-A5/GpH7-B3/GpL16-k0 (=100) | B9
70.6 % of control GpH7-A5/GpH7-B3/GpL16-k0 (=100) | B10
68.5 % of control GpH7-A5/GpH7-B3/GpL16-k0 (=100) | B11
66.3 % of control GpH7-A5/GpH7-B3/GpL16-k0 (=100) | B12
102 % of control GpH7-A5/GpH7-B3/GpL16-k0 (=100) | B13
104 % of control GpH7-A5/GpH7-B3/GpL16-k0 (=100) | B14
104 % of control GpH7-A5/GpH7-B3/GpL16-k0 (=100) | B15
103 % of control GpH7-A5/GpH7-B3/GpL16-k0 (=100) | B16
58.4 % of control GpH7-A5/GpH7-B3/GpL16-k0 (=100) | B17
73.5 % of control GpH7-A5/GpH7-B3/GpL16-k0 (=100) | B18
103 % of control GpH7-A5/GpH7-B3/GpL16-k0 (=100) | B19
103 % of control GpH7-A5/GpH7-B3/GpL16-k0 (=100) | B20
68 % of control GpH7-A5/GpH7-B3/GpL16-k0 (=100) | B21
102 % of control GpH7-A5/GpH7-B3/GpL16-k0 (=100) | B22
78.2 % of control GpH7-A5/GpH7-B3/GpL16-k0 (=100) | B23
102 % of control GpH7-A5/GpH7-B3/GpL16-k0 (=100) | B24
102 % of control GpH7-A5/GpH7-B3/GpL16-k0 (=100) | B25

The binders below were run against T1, FcγRIIb extracellular domain with … in the same assay as above.

He/Con_2b | Binder
83.8 % of control GpH7-A5/GpH7-B3/GpL16-k0 (=100) | B1
64.7 % of control GpH7-A5/GpH7-B3/GpL16-k0 (=100) | B2
48.9 % of control GpH7-A5/GpH7-B3/GpL16-k0 (=100) | B3
89.6 % of control GpH7-A5/GpH7-B3/GpL16-k0 (=100) | B4
13.9 % of control GpH7-A5/GpH7-B3/GpL16-k0 (=100) | B5
59.5 % of control GpH7-A5/GpH7-B3/GpL16-k0 (=100) | B6
40.3 % of control GpH7-A5/GpH7-B3/GpL16-k0 (=100) | B7
41.5 % of control GpH7-A5/GpH7-B3/GpL16-k0 (=100) | B8
84.3 % of control GpH7-A5/GpH7-B3/GpL16-k0 (=100) | B9
57.8 % of control GpH7-A5/GpH7-B3/GpL16-k0 (=100) | B10
44.9 % of control GpH7-A5/GpH7-B3/GpL16-k0 (=100) | B11
18.3 % of control GpH7-A5/GpH7-B3/GpL16-k0 (=100) | B12
97.7 % of control GpH7-A5/GpH7-B3/GpL16-k0 (=100) | B13
75.7 % of control GpH7-A5/GpH7-B3/GpL16-k0 (=100) | B14
79.7 % of control GpH7-A5/GpH7-B3/GpL16-k0 (=100) | B15
66.8 % of control GpH7-A5/GpH7-B3/GpL16-k0 (=100) | B16
20.3 % of control GpH7-A5/GpH7-B3/GpL16-k0 (=100) | B17
53.6 % of control GpH7-A5/GpH7-B3/GpL16-k0 (=100) | B18
58.1 % of control GpH7-A5/GpH7-B3/GpL16-k0 (=100) | B19
67.5 % of control GpH7-A5/GpH7-B3/GpL16-k0 (=100) | B20
34.7 % of control GpH7-A5/GpH7-B3/GpL16-k0 (=100) | B21
94.6 % of control GpH7-A5/GpH7-B3/GpL16-k0 (=100) | B22
48 % of control GpH7-A5/GpH7-B3/GpL16-k0 (=100) | B23
67.9 % of control GpH7-A5/GpH7-B3/GpL16-k0 (=100) | B24
68.6 % of control GpH7-A5/GpH7-B3/GpL16-k0 (=100) | B25
